The target in assay [1] is eIF5B-D34 (eIF5B domains D3 and D4) (human). The assay is described as follows: fluorescence polarisation.
In assay [2] the target is eIF5B Domain-4 (eIF5B-D4) (human). In words: fluorescence polarisation. For orientation: Polarisation of emitted light reports the rotation of a fluorescent probe.
The target of assay [3] is eIF1AΔC (eIF1A missing the entire 26-residue C-terminal tail) (human). The assay is described as follows: NMR titration.
The target in assay [4] is fluorescein-labeled synthetic eIF1A-CT7 peptide (human). In words: fluorescence polarisation.

eIF5B Domain-4 (eIF5B-D4) (human), sequence (O60841 whole entry, the tested form may be a part): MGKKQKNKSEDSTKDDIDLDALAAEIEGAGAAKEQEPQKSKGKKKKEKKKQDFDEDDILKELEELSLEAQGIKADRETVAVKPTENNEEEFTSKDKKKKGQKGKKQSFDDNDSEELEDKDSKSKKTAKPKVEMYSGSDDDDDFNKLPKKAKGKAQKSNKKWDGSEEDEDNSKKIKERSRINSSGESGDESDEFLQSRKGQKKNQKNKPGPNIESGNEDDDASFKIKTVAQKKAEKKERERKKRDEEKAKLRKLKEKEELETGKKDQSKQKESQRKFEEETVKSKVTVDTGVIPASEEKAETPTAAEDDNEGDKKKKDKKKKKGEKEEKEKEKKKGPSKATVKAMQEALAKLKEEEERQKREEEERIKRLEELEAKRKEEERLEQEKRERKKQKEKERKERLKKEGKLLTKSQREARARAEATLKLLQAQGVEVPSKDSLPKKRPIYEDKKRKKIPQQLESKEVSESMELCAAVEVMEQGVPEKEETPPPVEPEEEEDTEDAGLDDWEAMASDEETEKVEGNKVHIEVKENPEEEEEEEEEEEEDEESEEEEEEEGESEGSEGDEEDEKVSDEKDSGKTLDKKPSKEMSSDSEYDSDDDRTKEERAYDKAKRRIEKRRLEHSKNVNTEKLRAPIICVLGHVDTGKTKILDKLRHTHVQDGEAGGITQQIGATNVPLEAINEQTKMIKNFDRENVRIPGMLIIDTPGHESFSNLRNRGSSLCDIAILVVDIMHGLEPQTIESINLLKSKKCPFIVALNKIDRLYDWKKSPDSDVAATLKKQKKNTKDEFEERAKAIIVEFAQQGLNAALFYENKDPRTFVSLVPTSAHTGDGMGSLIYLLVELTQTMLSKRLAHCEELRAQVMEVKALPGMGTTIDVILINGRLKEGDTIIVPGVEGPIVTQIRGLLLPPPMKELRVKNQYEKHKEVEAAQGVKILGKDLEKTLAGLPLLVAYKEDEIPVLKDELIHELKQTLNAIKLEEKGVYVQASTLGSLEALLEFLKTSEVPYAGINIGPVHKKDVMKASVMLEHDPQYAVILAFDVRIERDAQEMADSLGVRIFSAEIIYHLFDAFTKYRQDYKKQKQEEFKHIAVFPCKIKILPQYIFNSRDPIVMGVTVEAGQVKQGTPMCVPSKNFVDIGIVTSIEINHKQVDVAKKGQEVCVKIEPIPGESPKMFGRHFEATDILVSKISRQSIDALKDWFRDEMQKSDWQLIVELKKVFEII
eIF5B-D34 (eIF5B domains D3 and D4) (human), sequence (O60841 whole entry, the tested form may be a part): as above

Usually Kd stands for the constant that tells how readily two partners part at equilibrium. A high value points to weaker binding. Take “eIF1A C-terminal tail (eIF1A-CTT), 26 residues (peptide)”: the results for the Kd in assay [1] and in assay [2] were 18 µM and 12 µM, respectively.
For “eIF1A-CT16 (the 16 C-terminal residues in eIF1A) (peptide)” the same measures were 23 µM and 12 µM.
Regarding “eIF5B Domain-3 (eIF5B-D3) (domain or fragment)”, the Kd in assay [3] is less than 1000 µM.
Consider “eIF5B Domain-4 (eIF5B-D4) (domain or fragment)”, for which the Kd in assay [4] came out at 12 µM.
Substance “eIF5B-D34 (eIF5B domains D3 and D4) (domain or fragment)” showed an equilibrium dissociation constant (Kd) in assay [4] of 27 µM.
Consider “eukaryotic translation initiation factor 1A (eIF1A), full-length (from UniProt P47813 1-144) (natural protein)”, for which the Kd in assay [1] was 41 µM; in assay [2] it was 39 µM.

The record behind these values is PMC5009744.
